Consider one molecule from PMC5913134, “The IL-33-PIN1-IRAK-M axis is critical for type 2 immunity in IL-33-induced allergic airway inflammation” (Nature Communications, 2018).

For this assay, the system named is PIN1. Kind of assay: PIN1 enzymatic (PPIase) activity in DC2.4 cells. The format is cell-based, C57BL/6. The following applies: IL-33 100 ng/ml, 5 min, substrate Suc-Ala-Glu-Pro-Phe-pNa. As to the method: DC2.4 cell line were either treated with 100ng/ml IL-33 for indicate time (0, 5 and 15 min). The cells were harvested and homogenized in a reaction buffer containing 100 mM NaCl, 50 mM HEPES, pH 7, 2 mM DTT, and 0.04 mg/ml BSA. The lysates were cleared by centrifugation at 12,000 g for 10 minutes (4 °C). PPIase activity was measured using equal amounts of […] cytoplasmic lysates and α-chymotrypsin using a synthetic tetrapeptide substrate Suc-Ala-Glu-Pro-Phe-pNa (Peptides International). Absorption at 390 nm was measured using an Ultrospec 2000 spectrophotometer. The results are expressed as the mean of 3 measurements from a single experiment and are representative of 3 independent experiments.

B1: IL-33: Recombinant mouse IL-33 purchased from BioLegend (protein, UniProt Q8BVZ5 1-266, looked up)
Interleukin-33: MRPRMKYSNSKISPAKFSSTAGEALVPPCKIRRSQQKTKEFCHVYCMRLRSGLTIRKETSYFRKEPTKRYSLKSGTKHEENFSAYPRDSRKRSLLGSIQAFAASVDTLSIQGTSLLTQSPASLSTYNDQSVSFVLENGCYVINVDDSGKDQEQDQVLLRYYESPCPASQSGDGVDGKKLMVNMSPIKDTDIWLHANDKDYSVELQRGDVSPPEQAFFVLHKKSSDFVSFECKNLPGTYIGVKDNQLALVEEKDESCNNIMFKLSKI
Regarding B1, the PIN1 activity result was “dramatically elevated PIN1 activity”.
